Test results as given in patent US12491259B2, “Anti-variable MUC1* antibodies and uses thereof” (Minerva Biotechnologies Corporation, priority 2022, dated 2025).

B1: MNC2-MMAF (conjugate)
VH: EVQLVESGGGLVKPGGSLRLSCAASGFTFSGYAMSWVRQAPGKGLEWVSTISSGGTYIYYPDSVKGRFTISRDNAKNSLYLQMNSLRAEDTAVYYCARLGGDNYYEYFDVWGKGTTVTVSS
VL: DIVLTQSPASLAVSPGQRATITCRASKSVSTSGYSYMHWYQQKPGQPPKLLIYLASNLESGVPARFSGSGSGTDFTLTINPVEANDTANYYCQHSRELPFTFGGGTKVEIKRT
B2: MNC2-Deruxtecan (conjugate)
VH: EVQLVESGGGLVKPGGSLRLSCAASGFTFSGYAMSWVRQAPGKGLEWVSTISSGGTYIYYPDSVKGRFTISRDNAKNSLYLQMNSLRAEDTAVYYCARLGGDNYYEYFDVWGKGTTVTVSS
VL: DIVLTQSPASLAVSPGQRATITCRASKSVSTSGYSYMHWYQQKPGQPPKLLIYLASNLESGVPARFSGSGSGTDFTLTINPVEANDTANYYCQHSRELPFTFGGGTKVEIKRT
B3: MN20A10-MMAF (conjugate)
VH: QVQLVESGGGLVKPGGSLRLSCAASGFTFSTYAMSWIRQAPGKGLEWVASIGRAGSTYYSDSVKGRFTISRDNAKNSLYLQMNSLRAEDTAVYYCARGPIYNDYDEFAYWGQGTLVTVSS
VL: EIVLTQSPATLSLSPGERATLSCKSSQSVLYSSNQKNYLAWYQQKPGQAPRLLIYWASTRESGIPARFSGSGSGTDFTLTISSLEPEDFAVYYCHQYLSSLTFGGGTKVEIKR

Columns and labels:
Experiment in all cases: xCELLigence real-time killing assay (impedance)
Type in all cases: cell-based, human
[1] = system: NCI-H1975 lung cancer cells; settings: for time course of effect: 40 hours versus 120 hours; for ADC concentration at which essentially all the lung tumor cells were killed: readout 40 hours; for ADC concentration at which essentially all the tumor cells were killed: readout 120 hours post ADC addition
Procedure: FIG. 51A-51I show traces from the real-time killing assays performed on an xCELLigence instrument. In this assay, impedance is measured in real-time. When the adherent cancer cells are killed and come off of the electrode surface, impedance (insulation) decreases. NCI-H1975 lung cancer cells were plated onto multi-electrode-well plates at 5,000 cells per well and allowed to adhere and grow for 24 hours before the addition of ADCs. Either MNC2-MMAE, DAR 4.1, MN20A10-MMAE, DAR 5.8, MNC2-MMAF, DAR 3.7, MN20A10-MMAF, DAR 3.8, MNC2-Deruxtecan, DAR 7.2, or MN20A10-Deruxtecan, DAR 4.6, was then added to the cancer cells. […] Taxol and Triton are added as the positive killing control. […].
FIGS. 56A-56D show traces from the real-time killing assays performed on an xCELLigence instrument. In this assay, impedance is measured in real-time. When the adherent cancer cells are killed and come off of the electrode surface, impedance (insulation) decreases. Here NCI-H1975 non-small cell lung cancer cells that express very low levels of MUC1*, were plated onto multi-electrode 96-well plates at 5,000 cells per well and allowed to adhere and grow for 24 hours before the addition of ADCs. Either MNC2-Exatecan, DAR 8.2, MNC2-Deruxtecan, DAR 4.0, MNC2-MMAE, DAR 4.1, or free Exatecan at 50 μM, was then added to the cancer cells.
(§1) To assess real-time killing of target cancer cells including breast cancer cells (T47D), non-small cell lung cancer cells (NCI-H1975) and pancreatic cancer cells (HP AF II) assays were performed on an xCELLigence RTCA MP Instrument (Agilent). Target Cancer cells were seeded onto a multi-electrode well plate at a density of 5000 cells/well (100 μL of a 50,000 cells/mL stock) and incubated for 24 hr in a 37° C./5% CO2 incubator. mAb MNC2 ADCs or mAb MN20A10-ADCs were prepared as a 2× solution in corresponding growth media and 100 μL of each concentration was added to target cells. As a positive control (100% cell killing) cells were treated with either 1% triton or 1 μM Taxol instead of ADC. After 40-120 hours incubation in a 37° C./5% CO2 incubator cell killing was assessed. In this assay, impedance is measured in real-time. When the adherent cancer cells are killed and come off the electrode surface, impedance (insulation) decreases.
(§2) MNC2-ADCs and MN20A10-ADCs were also assayed for their ability to kill both low and high MUC1* expressing cells by monitoring killing in real-time using an xCELLigence instrument. In the xCelligence system, target cancer cells, which are adherent, are plated onto electrode array 96-well plates. Adherent cells insulate the electrode and increase the impedance. The number of adherent cancer cells is directly proportional to impedance. […] Therefore, increasing impedance reflects the growth of the cancer cells and decreasing impedance reflects the killing of the cancer cells.

[2] = system: HPAF II-MUC1* pancreatic cancer cells; settings: readout 120 hours post ADC addition
Procedure: FIGS. 53A-53I show traces from the real-time killing assays performed on an xCELLigence instrument. In this assay, impedance is measured in real-time. When the adherent cancer cells are killed and come off of the electrode surface, impedance (insulation) decreases. HPAF II-MUC1* pancreatic cancer cells, engineered to express more MUC1*, were plated onto multi-electrode-well plates at 5,000 cells per well and allowed to adhere and grow for 24 hours before the addition of ADCs. Either MNC2-MMAE, DAR 4.1, MN20A10-MMAE, DAR 5.8, MNC2-MMAF, DAR 3.7, MN20A10-MMAF, DAR 3.8, MNC2-Deruxtecan, DAR 7.2, or MN20A10-Deruxtecan, DAR 4.6, was then added to the cancer cells. […] Taxol and Triton are added as the positive killing control. […] Taxol and Triton are added as the positive killing control. […] As indicated, essentially all the pancreatic tumor cells were killed at an MNC2-MMAE concentration of 56 nM. […] As indicated, essentially all the tumor cells were killed at an MNC2-MMAF concentration of 56 nM. […] As indicated, essentially all the tumor cells were killed at an MN20A10-MMAE concentration of 56 nM-19 nM. […] As indicated, essentially all the tumor cells were killed at an MN20A10-MMAF concentration of 56 nM.
as §1, with “When the adherent cancer cells are killed and come off the electrode surface, impedance (insulation) decreases.” left out

[3] = system: T47D wild-type breast cancer cells; settings: for concentration showing potent / effective / comparable killing: after 120 hours; for ADC concentration at which essentially all the tumor cells were killed: readout 120 hours post ADC addition, DAR: MNC2-MMAE 4.1, MN20A10-MMAE 5.8, MNC2-MMAF 3.7, MN20A10-MMAF 3.8; for concentration at which target cells are effectively killed: within a 40 hour timeframe
Procedure: FIGS. 49A-49J show traces from the real-time killing assays performed on an xCELLigence instrument. In this assay, impedance is measured in real-time. When the adherent cancer cells are killed and come off of the electrode surface, impedance (insulation) decreases. T47D wild-type breast cancer cells were plated onto multi-electrode-well plates at 5,000 cells per well and allowed to adhere and grow for 24 hours before the addition of ADCs. Either MNC2-MMAE, DAR 4.1, MN20A10-MMAE, DAR 5.8, MNC2-MMAF, DAR 3.7, MN20A10-MMAF, DAR 3.8, MNC2-Deruxtecan, DAR 7.2, or MN20A10-Deruxtecan, DAR 4.6, was then added to the cancer cells. […] Taxol and Triton are added as the positive killing control. […] Taxol and Triton are added as the positive killing control. […]
as §1, §2
Breast cancer cell line T47D-wt expresses MUC1* at low to low-medium levels. Pancreatic cancer cell line HPAF II-wt expresses even lower levels of MUC1* and lung cancer cell line NCI-H1975 express still lower levels of MUC1*.

| Molecule | time course of effect [1] | ADC concentration at which essentially all the lung tumor cells were killed [1] [nM] | ADC concentration at which essentially all the tumor cells were killed [1] [nM] | ADC concentration at which essentially all (nearly all, near total) tumor cells were killed [2] [nM] | concentration showing potent / effective / comparable killing [3] [nM] | ADC concentration at which essentially all the tumor cells were killed [3] [nM] | concentration at which target cells are effectively killed [3] [nM] | concentration reaching approximately the same level of killing as MNC2-MMAE or -MMAF ([3]; by 100 hours, DAR 7.2) [nM] |
| --- | --- | --- | --- | --- | --- | --- | --- | --- |
| B1 | stasis at 40 hours, but killing at 120 hours | 167 | 56 | 56 | 167 | 167 | 500 | – |
| B2 | stasis at 40 hours, but killing at 120 hours | – | – | 167 | 167 | – | – | 167 |
| B3 | stasis at 40 hours, but killing at 120 hours | 167 | 56 | 56 | 167 | 167 | 500 | – |
